Laboratory results: patent US12194076B2, “Methods and compositions for treating myelofibrosis” (Acceleron Pharma Inc., priority 2016, dated 2025)

Columns and labels:
Activin A [1] = biological target: T1, Activin A (Homo sapiens, UniProt P08476); assay: Biacore steady-state affinity of ActRIIB-hFc proteins for activin A; format: binding; conditions: compared to counterparts lacking the L79D substitution
T1 sequence (P08476 311-426): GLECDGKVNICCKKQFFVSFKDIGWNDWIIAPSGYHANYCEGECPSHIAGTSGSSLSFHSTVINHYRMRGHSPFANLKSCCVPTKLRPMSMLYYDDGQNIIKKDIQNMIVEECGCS
Description: (§1) Affinities of several ligands for ActRIIB(25-131)-hFc and its full-length counterpart ActRIIB(20-134)-hFc were evaluated in vitro with a Biacore™ instrument, and the results are summarized in the table below. Kd values were obtained by steady-state affinity fit due to very rapid association and dissociation of the complex, which prevented accurate determination of kon and koff. ActRIIB(25-131)-hFc bound activin A, activin B, and GDF11 with high affinity.
(§2) The affinity of GDF traps and other ActRIIB-hFc proteins for several ligands was evaluated in vitro with a Biacore™ instrument. Kd values were obtained by steady-state affinity fit due to the very rapid association and dissociation of the complex, which prevented accurate determination of kon and koff.

GDF11 [2] = biological target: T2, GDF11 (Homo sapiens, UniProt O95390); assay: Biacore steady-state affinity of ActRIIB-hFc proteins for GDF11; format: binding; conditions: compared to counterparts lacking the L79D substitution
T2 sequence (O95390 299-407): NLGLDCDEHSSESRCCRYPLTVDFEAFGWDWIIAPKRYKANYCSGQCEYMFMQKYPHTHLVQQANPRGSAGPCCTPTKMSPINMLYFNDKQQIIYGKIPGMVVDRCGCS
Description: as §1, §2

BMP10 = biological target: T3, BMP10 (Homo sapiens, UniProt O95393); assay: Biacore ligand binding of GDF trap, BMP10
T3 sequence (O95393 317-424): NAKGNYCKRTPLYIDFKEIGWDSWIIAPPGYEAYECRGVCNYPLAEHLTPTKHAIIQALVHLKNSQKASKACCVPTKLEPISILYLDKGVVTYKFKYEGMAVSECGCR
Description: as §2

Activin B = biological target: T4, Activin B (Homo sapiens, UniProt P09529); assay: Biacore steady-state affinity of ActRIIB-hFc proteins for activin B; format: binding; conditions: compared to counterparts lacking the L79D substitution
T4 sequence (P09529 293-407): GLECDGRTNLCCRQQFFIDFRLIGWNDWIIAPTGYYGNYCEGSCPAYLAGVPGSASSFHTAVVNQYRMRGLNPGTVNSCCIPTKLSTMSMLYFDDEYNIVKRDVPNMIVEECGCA
Description: as §1, §2

BMP6 = biological target: T5, BMP6 (Homo sapiens, UniProt P22004); assay: Biacore ligand binding of GDF trap, BMP6
T5 sequence (P22004 375-513): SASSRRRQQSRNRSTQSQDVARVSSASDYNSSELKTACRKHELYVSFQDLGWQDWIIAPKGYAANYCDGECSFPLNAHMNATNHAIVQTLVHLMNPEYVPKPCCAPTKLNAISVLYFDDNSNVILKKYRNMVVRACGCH
Description: as §2

GDF8 [3] = biological target: T6, GDF8 (Homo sapiens, UniProt O14793); assay: Biacore ligand binding of GDF trap, GDF8
T6 sequence (O14793 267-375): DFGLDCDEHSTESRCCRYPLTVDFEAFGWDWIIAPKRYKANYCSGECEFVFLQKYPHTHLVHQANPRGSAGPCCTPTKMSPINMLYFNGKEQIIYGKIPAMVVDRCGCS
Description: as §2

[4] = test system: anemic myelofibrosis patients; conditions: cited from earlier work
GDF11 [5] = biological target: T2, GDF11; conditions: see U.S. Pat. No. 7,842,663; cited from earlier work
activin [6] = conditions: see U.S. Pat. No. 7,842,663; cited from earlier work
GDF11 [7] = biological target: T2, GDF11; assay: Biacore assay, receptor captured with anti-hFc antibody, GDF11 injected; format: binding; conditions: receptor captured via anti-hFc antibody
Description: (§3) Binding of certain ActRIIB-Fc proteins and GDF traps to ligands was tested in a Biacore™ assay.
(§4) The ActRIIB-Fc variants or wild-type protein were captured onto the system using an anti-hFc antibody. Ligands were injected and flowed over the captured receptor proteins.

GDF8 [8] = biological target: T6, GDF8; assay: Biacore assay, receptor captured with anti-hFc antibody, GDF8 injected; format: binding; conditions: receptor captured via anti-hFc antibody
Description: as §3, §4

GDF11 [9] = biological target: T2, GDF11; assay: Affinity/binding of ActRIIB-Fc fusion proteins for GDF11; conditions: ActRIIB-Fc fusion protein, position 64 variant
activin [10] = assay: Affinity/binding of ActRIIB-Fc fusion proteins for activin; conditions: ActRIIB-Fc fusion protein, position 64 variant
Activin A [11] = biological target: T1, Activin A; assay: Biacore assay, receptor captured with anti-hFc antibody, activin A injected; format: binding; conditions: receptor captured via anti-hFc antibody
Description: as §3, §4

Activin A [12] = biological target: T1, Activin A; assay: A-204 reporter gene assay, inhibition of activin A signaling; format: cell-based; design: host or cells: added to A-204 cells (human rhabdomyosarcoma)
From the text: (§5) An A-204 reporter gene assay was used to evaluate the effects of ActRIIB-Fc proteins and GDF traps on signaling by GDF-11 and activin A. Cell line: human rhabdomyosarcoma (derived from muscle). Reporter vector: pGL3(CAGA)12 (described in Dennler et al, 1998, EMBO 17: 3091-3100). The CAGA12 motif is present in TGF-beta responsive genes (e.g., PAI-1 gene), so this vector is of general use for factors signaling through SMAD2 and 3.
(§6) Day 1: Split A-204 cells into 48-well plate.
(§7) Day 2: A-204 cells transfected with 10 ug pGL3(CAGA)12 or pGL3(CAGA)12(10 ug)+pRLCMV (1 μg) and Fugene.
(§8) Day 3: Add factors (diluted into medium+0.1% BSA). Inhibitors need to be preincubated with factors for 1 hr before adding to cells. Six hrs later, cells were rinsed with PBS and lysed.
(§9) This is followed by a luciferase assay.
(§10) Activity of ActRIIB-Fc proteins and GDF traps was tested in a cell-based assay as described above. Some variants were tested in different C-terminal truncation constructs. As discussed above, truncations of five or fifteen amino acids caused reduction in activity.

GDF11 [13] = biological target: T2, GDF11; assay: A-204 reporter gene assay, inhibition of GDF-11 signaling; format: cell-based; design: host or cells: added to A-204 cells (human rhabdomyosarcoma)
From the text: as §5, §6, §7, §8, §9, §10

GDF8 [14] = biological target: T6, GDF8; assay: A-204 reporter gene assay, inhibition of GDF-8 activity; format: cell-based; design: host or cells: added to A-204 cells (human rhabdomyosarcoma)
Serum half-life in rats = format: in vivo
Description: Several variants have been assessed for serum half-life in rats. ActRIIB(20-134)-Fc has a serum half-life of approximately 70 hours. […] Any of the variants tested above, may be combined with the GDF trap molecules.

GDF11 [15] = biological target: T2, GDF11; conditions: ligand coupled to the device; reproduced from WO2006/012627; cited from earlier work

## ActRIIB(L79D 25-131)-hFc: GDF trap with truncated ActRIIB extracellular domain (residues 25-131, L79D) fused to human Fc, SEQ ID NO: 50, 53
Activin A [1]
  activin A binding, in words: pronounced loss
GDF11 [2]
  GDF11 binding, in words: nearly full retention
BMP10
  binding to BMP10, in words: strong to intermediate
Activin B
  activin B binding, in words: partial loss
BMP6
  binding to BMP6, in words: strong to intermediate
GDF8 [3]
  binding to GDF8, in words: strong to intermediate

## C#C[C@]1(O)CC[C@H]2[C@@H]3CCC4=Cc5oncc5C[C@]4(C)[C@H]3CC[C@@]21C [danazol]
[4]
  anemia response rate: around 20%

B1: ActRIIB(20-119)-Fc: ActRIIB-Fc fusion protein containing amino acids 20-119 of SEQ ID NO: 1 (protein)
chain: GRGEAETRECIYYNANWELERTNQSGLERCEGEQDKRLHCYASWRNSSGTIELVKKGCWLDDFNCYDRQECVATEENPQVYFCCCEGNFCNERFTHLPEA
modifications: Fc fusion, Fc no entry
GDF11 [5]
  binding to GDF11 relative to ActRIIB(20-134)-Fc: reduced
Activin [6]
  binding to activin relative to ActRIIB(20-134)-Fc: reduced

B2: ActRIIB(20-134)-hFc: extracellular domain of human ActRIIB (20-134, R64) fused to human Fc with three-glycine linker, SEQ ID NO: 24 (protein)
chain: GRGEAETRECIYYNANWELERTNQSGLERCEGEQDKRLHCYASWRNSSGTIELVKKGCWLDDFNCYDRQECVATEENPQVYFCCCEGNFCNERFTHLPEAGGPEVTYEPPPTAPTGGGTHTCPPCPAPELLGGPSVFLFPPKPKDTLMISRTPEVTCVVVDVSHEDPEVKFNWYVDGVEVHNAKTKPREEQYNSTYRVVSVLTVLHQDWLNGKEYKCKVSNKALPVPIEKTISKAKGQPREPQVYTLPPSREEMTKNQVSLTCLVKGFYPSDIAVEWESNGQPENNYKTTPPVLDSDGSFFLYSKLTVDKSRWQQGNVFSCSVMHEALHNHYTQKSLSLSPGK
GDF11 [7]
  Koff (1/s), GDF11: 0.000113 s⁻¹
GDF8 [8]
  Koff (1/s), GDF8: 3.45e-05 s⁻¹
GDF11 [9]
  affinity for GDF11, in words: low nanomolar to high picomolar range
Activin [10]
  affinity for activin, in words: low nanomolar to high picomolar range
Activin A [11]
  Koff (1/s), Activin A: 0.000159 s⁻¹
  Kon (1/Ms), Activin A: 5.94e+06 M⁻¹ s⁻¹
Activin A [12]
  inhibition of activin A activity, in words: potent inhibitor
GDF11 [13]
  inhibition of GDF-11 activity, in words: potent inhibitor
GDF8 [14]
  inhibition of GDF-8 activity, in words: potent inhibitor

B3: ActRIIB(20-134)-Fc: ActRIIB-Fc fusion protein containing amino acids 20-134 of SEQ ID NO: 1 (protein)
chain: GRGEAETRECIYYNANWELERTNQSGLERCEGEQDKRLHCYASWRNSSGTIELVKKGCWLDDFNCYDRQECVATEENPQVYFCCCEGNFCNERFTHLPEAGGPEVTYEPPPTAPT
modifications: Fc fusion partner without entry
Serum half-life in rats
  serum half-life: approximately 70 hours

B4: A64 20-134: ActRIIB-Fc fusion protein, residues 20-134, alanine at position 64 (protein)
chain: GRGEAETRECIYYNANWELERTNQSGLERCEGEQDKRLHCYASWANSSGTIELVKKGCWLDDFNCYDRQECVATEENPQVYFCCCEGNFCNERFTHLPEAGGPEVTYEPPPTAPT
modifications: Fc fusion partner without entry
GDF11 [9]
  affinity for GDF11, in words: relatively low affinity
Activin [10]
  affinity for activin, in words: relatively low affinity

B5: K74A: soluble ActRIIB-Fc variant K74A, data from WO2006/012627 (protein)
chain: SGRGEAETRECIYYNANWELERTNQSGLERCEGEQDKRLHCYASWANSSGTIELVAKGCWLDDFNCYDRQECVATEENPQVYFCCCEGNFCNERFTHLPEA
modifications: left off: a dimerising Fc or GST
GDF11 [15]
  GDF11 binding relative to WT: +++++ (~40x increased binding)
